The series is described as follows: yeast display, Sf9 membrane polyspecificity reagent, FACS + sequencing; frameworks hold sequencing errors. In short, it runs like this: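 After 36–48 hours of galactose induction, yeast (Saccharomyces cerevisiae BJ5465) displaying a synthetic nanobody library were stained at 4 °C for 1 hour with 10% biotinylated, detergent-solubilized Sf9 membrane reagent. Streptavidin microbeads enriched the stained cells before FACS sorting into low and high (top ~1%) gates on anti-HA and streptavidin fluorescence. Each clone's polyreactivity label reflects its gate of origin.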
On to “QVQLVESGGGLFQAGGSLRLSCAASGRTFRVYAMGWYRQAPGKEREFVAAISYSGGRTNYADSVKGRFTISRDYAKNTVYLQKNSLKPEDTAVYYCAARYTWAEGDYWGQGTQVTVSS”, for which the “polyreactivity (PSR sort gate)” value is “low polyreactivity”. On to “QVQLVESGGGLFQAGGSLRLSCAASGRTLPAYAMGWYRQAPGKERELVAAISWGGGSTYYADSVKGRFTISRDNAKNTVYLQMNSLKPEDTSVYYCAVAGYWFAVAEYEYWGQGTQVTVSS”, for which the “polyreactivity (PSR sort gate)” value is “low polyreactivity”. Next, “QVQLVESGGGLFQAGGSLRLSCAASGSIFGHYAMGWYRQAPGKERELVAAISYSGGSTYYADSVKGRFTISRDNAKNTVYLHMNSLKPEDTAVYYCNADLYDAGSEMDYWGQGTQVTVSS”: “high polyreactivity”; “QVQLVESGGGLFQAGGSLRLSCAASGSIFRYNTMGWYRHAPGKESELVARISSGGSTYYADSVKGRFTISRDNAKNTVYLQMNSLKPEDTAVYYCAAVSRHRGWDRYYWGQGTQVTVSS”: “high polyreactivity”. In the case of “QVQLVESGGGLFQAGGSLRLSCAASGSIFSWNDIGRYIQAPGKERELVAAITSGGSTYYADSVKGRFTISRDNAKNTVYLQMNSLKPEDTAVYYCAAGQDLHDFDYWGQGTQVTVSS” it was “low polyreactivity”; in that of “QVQLVESGGGLFQAGGSLRLSCAASGSIFWSYAMGWYRQAPGKERELVAAISSGGSTNYADSVKGRFTISRDNAKNTVYLQMNSLKPEDTAVYYCNAVGAKGYVKGFDYWGQGTQVTVSS”, “low polyreactivity”; in that of “QVQLVESGGGLFQAGGSLRLSCAASGSIFWSYAMGWYRQAPGKERELVAAISSGGSTNYADSVKGRFTISRDNAKNTVYLQMNSLQPEDTAVYYCNALGAKGYVKGFDYWGQGTQVTVSS”, “low polyreactivity”. Next, “QVQLVESGGGLFQAGGSLRLSCAASGSSFPFYAMGWYRQAPGKERELVASISSGGSTNYADSVKGRFTISRDNAKNTVYLQMNSLKPEDTAVYYCNADVPYRWDTWFQVVYPESYDYWGQGTQVTVSS”: “low polyreactivity”; “QVQLVESGGGLFQAGGSLRLSCAASGSTFAVYAMGWYRQAPGKERELVAVISWSDGRTYYADSVKGRFTISRDNAKNTVYLQMNSLKPEDTAVYYCNARLDTFVPRYGYWGHGTQVTVSS”: “high polyreactivity”; “QVQLVESGGGLFQAGGSLRLSCAASGSTFDVNTMGGYRQAPGKERELVAAIRLRGGSTYYADSVKGRFTISRYNAKNTVYLQMNSLKPEDTAVYYCAARYPWVYYDFDYWGQGTQVTVSS”: “low polyreactivity”. On to “QVQLVESGGGLFQAGGSLRLSCAASGSTFKRYAMGWYRQAPGKERELVAAITLSGGNTYYADSVKGRFTISRYNAKNTVYLQMNSLKPEDTAVYYCAARRYRGYDYWGQGTQVTVSS”, for which the “polyreactivity (PSR sort gate)” value is given as “high polyreactivity”. “QVQLVESGGGLFQAGGSLRLSCAASGSTLWRNAMGWYRQATGKERELVAAITRRGGITYYADSVKGRFTISRDNAKNTVYLQMNSLKPEDTAVYYCNAVRSTDGSDYWGQGTQVTVSS”: the “polyreactivity (PSR sort gate)” value is “high polyreactivity”. Next, “QVQLVESGGGLFQAGGSLRLSCAASGYTFPLYDMGWYRQAPGKERELVADINIGGASTYYADSVKGRFTISRDNAKNTVNLQMNSLKPEDTAVYYCAKEYNDGYFPTFDYDYWGQGTQVTVSS”: “low polyreactivity”; “QVQLVESGGGLFQAGGSLRLSCAASVSIFSWYTMGWYRQAPGKERELDAAITSSGGSTYYADSVKGRFTISRDNAKNTVYLQMNSLKPEDTAVYYCAAKSWFYYLHRPYVRRYDYWGQGTQVTVSS”: “high polyreactivity”; “QVQLVESGGGLFQAGGSLRLSCADYGSTFRTYVMGWYRQAPGKESEFVAAITNGISTNYADSVKGRFTISRDNAKYTFYLQMNSLKPEDTAVYYCAARVRRGSTQAQYYYWGQGTQVTVSS”: “high polyreactivity”. In the case of “QVQLVESGGGLFQAGGSLRVSCAASGRTFVNYAMGWYRQAAGKERELVAAISTSGGSTYYADSVKGRFTISRDNAKNTDYYQRNSLKPEDTAVYYCKKVRYLAVNLGQFTFDYWGQGTQGTVSS” it was “low polyreactivity”; in that of “QVQLVESGGGLFQAGGSLSLRCAASGSIFEVNALGWDRQGPGKERELVAAISQRGTRTYYADSVKGRFTMSRDYAKNTVYLQMNILKPEDTAVYYCNRGGWRQYDSWGQGTQVTVST”, “high polyreactivity”; in that of “QVQLVESGGGLFQAGRSLPLSCAASGIIFTQYPMGWYRQAPGKERELVAAISGSGGRTYYADSVKGRFSISRDNEKNTVYLQMKILKPEDTAVYYCAARYARYGNDYWGQCTQVTVSS”, “high polyreactivity”.

In the case of “QVQLVESGGGLFQAGRSLRLICAASGRIFNQYPMGWSRQAPGKETELVAAIRRSSDSTYYADSVKGRFTISRDNAKNTVYLQMNSLTPEDSAVYYCATDGYRRWVWMEYWGQGTQVTVSS”, the “polyreactivity (PSR sort gate)” value is reported as “low polyreactivity”. “QVQLVESGGGLFQARGSLRLSCAASGRTFWYYTMGWYRPAPGKERELVASITYRGGSTYYADSVKGRFTISRDNAKITVYLQMNSLKREDTALYYCYARYKRYSYDYWGQGTQVTVSS”: the “polyreactivity (PSR sort gate)” value is recorded as “high polyreactivity”. In the case of “QVQLVESGGGLFQEGGSLRLSCAASGRTLRYYAMGWYRQAPGKVRELVAAISSGGTTNYADSVKGRFTISRDNAKNTVYFQMKSLKPEDTAVYYFAASYRRFRFSHYDYWGQVTQVTVSS” it was “high polyreactivity”. In the case of “QVQLVESGGGLFQEGGSLRLSCAASGSIFEPYVMGWYRQAPGKESELVAAIRQTGGSTYYADSVKGRFTISRDNAKNTVYLQMNSLKPEDTAVYYCNAEQNPSGLYDYRGVEGEMGYWGQGTQVTVSS” it was “low polyreactivity”; in that of “QVQLVESGGGLGHAGGSLRLSCAASGFTYTAYAMGWYRQAPGKERELVPSISKSDGSTYYADSVKGRFTISRDNAKNTVYLQMKSVKPEDTAVYYCATGRISRDFHRVQDLGYDYWGQGTQVNVSS”, “low polyreactivity”.

In the case of “QVQLVESGGGLGQAGGSLRLRCAASGSTFQYYAMGWYRQAPGKERELVAAITHSGTRTYYADSVKGRFTISRDNAKNTVYLQMNSLKPVDTAVYYCAARGYGKYDYWGQGTQVTVSS”, the “polyreactivity (PSR sort gate)” value is reported as “high polyreactivity”. Next, “QVQLVESGGGLGQAGGSLRLSCAASGFTFGNYAMGWYRQAPGKERELVAVISYSTGSTNYADSVKGRFTISRDNAKNTVYLQMNSLKPEDTAVYYCAKRYRSYYQGYGYWGQGTQVTVSS”: “high polyreactivity”; “QVQLVESGGGLGQAGGSLRLSCAASGFTFYAYVMGWYRQAPGKESELVAAISGSGSSTYYADSVKGRFTISRDNAKNTVDLEMNSLKPEDTAVYYCGAPQLYQYGGFGYWGQGTQVTVSS”: “high polyreactivity”; “QVQLVESGGGLGQAGGSLRLSCAASGRIFDVYAMGWYRQAPGKERELVATISSSGGATYYADSVKGRFTISRDNAKYTVYLQMNSLKPEDTAVYYCATTYRPTFRRHYNYWGQGTQVTVSS”: “low polyreactivity”.

For the sequence “QVQLVESGGGLGQAGGSLRLSCAASGRIFDYYAMGWYRQAPGKERELVATITSGSRTYYADSVKGRFTISRDNAKNTVYLQMNSLNPEDTAVYSCAAVKRSYYKGEYNAYDYWGQGTQVTVSS”, the “polyreactivity (PSR sort gate)” value is reported as “high polyreactivity”. Next, “QVQLVESGGGLGQAGGSLRLSCAASGRIFRDYAMGWYRQAPGKERQLVAAISWSGGSSYYADSVKGRFTISRDNAKNTVDLQMNSLKQEDTAVYYCAVEYYGGDSYRYDYWGQGTQVTVSS”: “low polyreactivity”. Take “QVQLVESGGGLGQAGGSLRLSCAASGRIFSYNSMGWYRPATGKERELVAAISTSGGSTYYADSVKGRFTISRDYAKNTVYLQLISLKPEDTAVYYCNARAPFSSAQPTFLIDDGYHWGQGTQETVSS”: the “polyreactivity (PSR sort gate)” value was “low polyreactivity”.

For the sequence “QVQLVESGGGLGQAGGSLRLSCAASGRTFLFNAMGWYRQAPGKDRELVAAISSGGGSTYYADSVKGRFTISRDNAKNTDYLEMNSLKPEDTAVYFCAAYPYYYRYNYWGQGTQVTVSS”, the “polyreactivity (PSR sort gate)” value is listed as “high polyreactivity”. Next, “QVQLVESGGGLGQAGGSLRLSCAASGRTFPIYVMGWYRQAPGKERELVASISASGVRTYFADSVKGRFTISRDNAKNTVYLQMNSLKPEDTAVYYCATQVRRWYSARSPNVRFDYWGQGTQVTVSS”: “high polyreactivity”; “QVQLVESGGGLGQAGGSLRLSCAASGRTFTGYAMGWYRQAPGKERELVATISRSGGTTSYADSVKGRFTISRDNAKNTVYVQMNSLKPVDTAVYYCAADRRSRPYYYWGQGTQVTVSS”: “high polyreactivity”. “QVQLVESGGGLGQAGGSLRLSCAASGSIFYRYAMGWYRQAPGKERELVAAISSTGSTYYADSVKGRFTISRDHAKNTVYLEMNSLTPEDTAVYYGAARQGYRSYRRYDYWGQGTQVTVSS”: the “polyreactivity (PSR sort gate)” value is reported as “high polyreactivity”. Next, “QVQLVESGGGLGQAGGSLRLSCAASGSTFQTKAMGWYRQAPGKERELVAAINSGGGTNYADSVKGRFTISRDNAKNTVYLQMNSLKPEDTAVYYCATDVLPRKYVSDYPSGAYDYWGQGTQVTVSS”: “low polyreactivity”. As for “QVQLVESGGGLGQAGGSLSLTCAASGSIFARNAMGWYRQAPGKERELVAAISTGGGSTYYADSVKGRFTISRDNAQNTVYLQMNSLKPEETEVYYCAAVGRSYYGHDYWGQGTQVTVSS”, the “polyreactivity (PSR sort gate)” value is given as “low polyreactivity”. For “QVQLVESGGGLGQAGVSLRLSCAASGRIFYFNAMGWYRQAPGKEREMVAANSWSGGSTYYADSVKGRFTISRDNAKNTVYLQMNSLKPEDTAVYYCATDSYRQGDYYLGRVDYWGQGTQVTVSS”, the “polyreactivity (PSR sort gate)” value is “low polyreactivity”. On to “QVQLVESGGGLLHAGGSLRLSCAASGSTFILYTMGWYRQAPGKERELVAAISRSSGGTYYADSVKGRFTISRDTAKNTVYLQMNSLKTEDTAVYYCAARSRGAKYDYWGQGTQVTVSS”, for which the “polyreactivity (PSR sort gate)” value is reported as “high polyreactivity”. Next, “QVQLVESGGGLLQAGGSLRKSCAASGFTFDENSMGGYRQAPAINYSGASTYYAVSVKGRFTISRDNAKNTVYLQMNSLKPEDTAVYYCAAEVVAQMIYWGQGTQVTVSS”: “low polyreactivity”. Next, “QVQLVESGGGLLQAGGSLRLSCAASGFIFRGYNMGWYRQAPGKERELVAAITTTSSTYYADSVKGRFTISRDNAKNTVYLQMNSLKPEDTAVYYCAALFYRYGYLYNYWGQGTQVTVSS”: “high polyreactivity”. In the case of “QVQLVESGGGLLQAGGSLRLSCAASGFNFGRYAMGWYRQAPGKERELVATISRSGGSTYYADSVKGRFTISRDNSKNTVFLQMNSLKPEDTAVYYCNALILPTKMGYWGQGTQVTVSS” it was “low polyreactivity”.

(Values after the nanobody polyreactivity screen of Harvey et al. (2022).)
